Assay results from paper PMC4405576, “The Crystal Structure and Small-Angle X-Ray Analysis of CsdL/TcdA Reveal a New tRNA Binding Motif in the MoeB/E1 Superfamily” (PLoS ONE, 2015).
One block for each compound: values may come before it.

How the values were obtained:
CsdL/TcdA = biological target: T1, CsdL/TcdA (Escherichia coli, UniProt Q46927); assay: X-ray crystallography; conditions: crystals in 0.05 M potassium phosphate, 10% PEG1000, basic pH, 20 °C; 1.77 Å; K+ and Na+ bound; nucleotide-binding site crystallisation; 1.89 Å; AMP as obtained directly from the cell (co-purified); n
T1 sequence (Q46927 1-268): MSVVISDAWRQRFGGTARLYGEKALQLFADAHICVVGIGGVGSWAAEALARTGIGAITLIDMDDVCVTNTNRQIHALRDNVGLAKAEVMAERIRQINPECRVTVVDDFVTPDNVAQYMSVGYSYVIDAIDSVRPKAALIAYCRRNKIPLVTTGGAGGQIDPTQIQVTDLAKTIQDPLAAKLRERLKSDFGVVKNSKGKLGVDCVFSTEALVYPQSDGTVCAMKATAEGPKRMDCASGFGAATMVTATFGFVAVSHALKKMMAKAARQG

[1] = biological target: tRNA threonylcarbamoyladenosine dehydratase A (TcdA) (E. coli) (UniProt Q46927); assay: SAXS; purified TcdA, batch setup, three concentrations between 0.5-5 mg/ml, 5°C, 20 mM sodium/potassium phosphate pH 7.4, 300 mM NaCl, 2 mM β-mercaptoethanol
[2] = biological target: tRNA threonylcarbamoyladenosine dehydratase A (TcdA) (E. coli) (UniProt Q46927); assay: AUC; sedimentation velocity and sedimentation equilibrium, 20°C, 20 mM HEPES, 100 mM KCl, 50 mM NaCl, pH 7.4; TcdA alone
[3] = biological target: tRNA threonylcarbamoyladenosine dehydratase A (TcdA) (E. coli) (UniProt Q46927); assay: SEC; analytical gel filtration of TcdA alone; data not shown
[4] = system: TcdA (CsdL) (Escherichia coli); assay: intrinsic fluorescence quenching; conditions: native tRNA modifications possible, not determined

Compound: Nc1ncnc2c1ncn2[C@@H]1O[C@H](COP(=O)(O)O)[C@@H](O)[C@H]1O [AMP]
X-ray crystallography (CsdL/TcdA): the nucleotide-binding residues stabilize AMP in a manner analogous to ATP

stoichiometry N [1]: 2 | stoichiometry N [2]: 2 | stoichiometry N [3]: 2
Compound: tRNA threonylcarbamoyladenosine dehydratase A (TcdA) (from UniProt Q46927 1-268) (enzyme)

Compound: tRNALys(UUU), overexpressed in E. coli
Kd [4]: 3000 nM
